Laboratory results from patent publication EP4745156A1 (Beijing Vjtbio Co., Ltd., dated 2026).

Molecular target: T1, His-tagged canine IL-31 (interleukin 31) recombinant protein (canine)
T1 construct: Expressed in HEK293 cells, purified on a Ni column; unlabelled analyte in BLI; also called canine IL-31 recombinant protein; biotin-labeled canine IL-31 recombinant protein
Experiment: BLI (Gator), biotinylated antibody on streptavidin probe, canine IL-31 as analyte

B1: Lokivetmab (antibody, V domains shown)
VH: EVQLVESGGDLVKPGGSLRLSCVASGFTFSNYGMSWVRQAPGKGLQWVATISYGGSYTYYPDNIKGRFTISRDNAKNTLYLQMNSLRAEDTAMYYCVRGYGYDTMDYWGQGTLVTVSS
VL: EIVMTQSPASLSLSQEEKVTITCKASQSVSFAGTGLMHWYQQKPGQAPKLLIYRASNLEAGVPSRFSGSGSGTDFSFTISSLEPEDVAVYYCQQSREYPWTFGQGTKLEIKR
  Kd: 19.3 nM
  koff: 0.00203 s⁻¹
  kon: 105000 M⁻¹ s⁻¹
